The Kd is the concentration at which binding is half-saturated.

The target in test [1] is T1, phospho-MOB1(K104E/K105E), full length, recombinant (human, UniProt Q9H8S9 1-216, K104E | K105E, phosphorylated in vitro by MST2 (residues 2-308); the paper names Thr12 and Thr35 as the MST1/2 phosphorylation sites of MOB1).
T1 sequence: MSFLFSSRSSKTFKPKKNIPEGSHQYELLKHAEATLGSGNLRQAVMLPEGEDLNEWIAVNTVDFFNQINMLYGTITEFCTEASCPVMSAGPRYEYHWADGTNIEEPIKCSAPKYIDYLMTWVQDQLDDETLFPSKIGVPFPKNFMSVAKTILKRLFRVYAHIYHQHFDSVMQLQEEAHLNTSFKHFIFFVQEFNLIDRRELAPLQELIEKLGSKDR
Description: ITC; phosphorylated MOB1. Background: ITC needs no label: the signal is the heat of the interaction.

For test [2], the target named is T2, human NDR1 (residues 24-87), NTR (human, UniProt Q15208 24-87).
T2 chain: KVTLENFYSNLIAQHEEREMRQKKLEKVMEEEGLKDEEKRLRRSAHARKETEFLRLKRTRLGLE
As to the kind of experiment: ITC.

The target of the next test is T3, LATS2 (603-666, V610Y) (human, UniProt Q9NRM7 603-666, V610Y).
T3 sequence: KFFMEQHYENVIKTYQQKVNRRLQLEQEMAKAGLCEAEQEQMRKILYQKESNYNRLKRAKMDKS
Description: ITC.

Test [3] deals with T4, human NDR2 (residues 25-88), N-terminal regulatory domain (NTR) (human, UniProt Q9Y2H1 25-88).
T4 chain: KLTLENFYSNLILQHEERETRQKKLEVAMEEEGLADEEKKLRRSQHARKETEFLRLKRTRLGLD
As to the kind of experiment: ITC.

In the next test the target is T5, LATS1 (640-703, V647Y) (human, UniProt O95835 640-703, V647Y).
T5 sequence: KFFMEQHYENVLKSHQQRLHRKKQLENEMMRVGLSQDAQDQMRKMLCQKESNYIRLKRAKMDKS
Description: ITC.

Test [4] has as its target T6, non-phosphorylated full-length MOB1A wild-type (human, UniProt Q9H8S9 1-216).
T6 construct: human MOB1A, full length; pET28a vector; also called unphosphorylated full-length MOB1; non-phosphorylated MOB1; source: E. coli, purified as MOB1A (33-216) (Ni-NTA)
T6 sequence (looked up): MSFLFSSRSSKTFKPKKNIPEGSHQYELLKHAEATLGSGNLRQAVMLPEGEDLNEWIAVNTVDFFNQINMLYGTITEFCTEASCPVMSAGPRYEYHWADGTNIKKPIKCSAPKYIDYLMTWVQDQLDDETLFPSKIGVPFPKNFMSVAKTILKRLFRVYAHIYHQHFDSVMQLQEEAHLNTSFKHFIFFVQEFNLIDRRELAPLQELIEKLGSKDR
As to the kind of experiment: ITC; 25 °C, ITC200; 25 mM HEPES pH 7.5, 200 mM NaCl, 1 mM EDTA; ~240 μM MOB1A injected (20 x 2 μl) into ~24 μM NDR1, NDR2, LATS1 or LATS2 fragment in the cell; single-site model. The settings on record: both partners purified.

The target in test [5] is T7, unphosphorylated full-length MOB1A(K104E/K105E), recombinant (human, UniProt Q9H8S9 1-216, K104E | K105E).
T7 construct: human MOB1A, full length; also called Unphosphorylated MOB1(K104E/K105E); MOB1(K104E/K104E); source: E. coli, purified as MOB1A (33-216) (Ni-NTA)
T7 sequence (looked up): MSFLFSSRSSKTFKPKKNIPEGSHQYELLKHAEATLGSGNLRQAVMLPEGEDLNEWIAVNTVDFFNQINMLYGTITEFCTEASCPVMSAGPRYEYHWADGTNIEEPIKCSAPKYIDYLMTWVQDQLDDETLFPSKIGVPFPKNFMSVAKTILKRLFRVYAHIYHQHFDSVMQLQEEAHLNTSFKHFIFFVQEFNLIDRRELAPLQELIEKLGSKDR
Described as above. The settings on record: both partners purified.

For test [6], the target named is T8, phospho-MOB1(K104E/K105E), full length, recombinant (human, UniProt Q9H8S9 1-216, K104E | K105E, phosphorylated in vitro by MST2 (residues 2-308); the paper names Thr12 and Thr35 as the MST1/2 phosphorylation sites of MOB1).
T8 construct: human MOB1A, full length; source: E. coli, purified (Ni-NTA), then phosphorylated in vitro by MST2 (2-308)
T8 sequence (looked up): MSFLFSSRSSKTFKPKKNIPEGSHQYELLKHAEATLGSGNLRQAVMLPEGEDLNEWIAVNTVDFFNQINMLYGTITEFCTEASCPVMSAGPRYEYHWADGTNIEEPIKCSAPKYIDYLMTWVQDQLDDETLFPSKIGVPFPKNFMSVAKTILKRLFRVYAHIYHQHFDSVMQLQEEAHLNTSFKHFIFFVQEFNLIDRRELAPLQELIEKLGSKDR
The test is described as above. As to conditions: both partners purified.

Test [7] has as its target T9, unphosphorylated full-length MOB1A(K104E/K105E), recombinant (human, UniProt Q9H8S9 1-216, K104E | K105E).
T9 sequence: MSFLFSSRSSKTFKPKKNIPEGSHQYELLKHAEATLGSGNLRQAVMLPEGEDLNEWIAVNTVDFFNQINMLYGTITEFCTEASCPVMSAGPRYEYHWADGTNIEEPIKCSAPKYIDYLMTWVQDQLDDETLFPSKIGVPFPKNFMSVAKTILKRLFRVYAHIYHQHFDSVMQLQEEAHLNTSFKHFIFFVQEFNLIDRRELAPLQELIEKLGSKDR
As to the kind of experiment: ITC.

B1: NDR1 (24-87, Y31V) (domain or fragment)
chain: KVTLENFVSNLIAQHEEREMRQKKLEKVMEEEGLKDEEKRLRRSAHARKETEFLRLKRTRLGLE
As for B1, in test [1], the Kd is 2.34 µM.

B2: non-phosphorylated full-length MOB1A wild-type (natural protein)
chain: MSFLFSSRSSKTFKPKKNIPEGSHQYELLKHAEATLGSGNLRQAVMLPEGEDLNEWIAVNTVDFFNQINMLYGTITEFCTEASCPVMSAGPRYEYHWADGTNIKKPIKCSAPKYIDYLMTWVQDQLDDETLFPSKIGVPFPKNFMSVAKTILKRLFRVYAHIYHQHFDSVMQLQEEAHLNTSFKHFIFFVQEFNLIDRRELAPLQELIEKLGSKDR
Consider B2, for which the Kd in test [2] was 8.06 µM; with LATS2 (603-666, V610Y), 11.5 µM; in test [3] it was 12.3 µM; with LATS1 (640-703, V647Y), 16.9 µM.

B3: NDR2 (25-88, Y32V) (domain or fragment)
chain: KLTLENFVSNLILQHEERETRQKKLEVAMEEEGLADEEKKLRRSQHARKETEFLRLKRTRLGLD
On to B3, for which, in test [1], the Kd stood at 8.7 µM.

B4: LATS1 (640-703, V647Y) (domain or fragment, human, UniProt O95835 640-703, looked up)
chain: KFFMEQHYENVLKSHQQRLHRKKQLENEMMRVGLSQDAQDQMRKMLCQKESNYIRLKRAKMDKS
notes: human LATS1, residues 640-703 (NTR); also called LATS1(V647Y); source: E. coli BL21(DE3), purified (Ni-NTA)
Take B4: the Kd turned out to be 3.83 µM in [1] and 14.1 µM in test [7]. Moreover, the binding result in [4], in test [5] and in [6] was “binds” throughout.

B5: human LATS2 (residues 603-666), NTR (domain or fragment, UniProt Q9NRM7 603-666, looked up)
chain: KFFMEQHVENVIKTYQQKVNRRLQLEQEMAKAGLCEAEQEQMRKILYQKESNYNRLKRAKMDKS
notes: human LATS2, residues 603-666 (NTR), codon-optimized synthetic gene; also called NTR of LATS2; source: E. coli BL21(DE3), purified (Ni-NTA)
As to B5, the Kd in test [1] was 8.4 µM. In test [6], the binding result is “binds”.

B6: LATS2 (603-666, V610Y) (domain or fragment, human, UniProt Q9NRM7 603-666, looked up)
chain: KFFMEQHYENVIKTYQQKVNRRLQLEQEMAKAGLCEAEQEQMRKILYQKESNYNRLKRAKMDKS
notes: human LATS2, residues 603-666 (NTR), codon-optimized synthetic gene; also called LATS2(V610Y); source: E. coli BL21(DE3), purified (Ni-NTA)
Take B6: the Kd in test [1] amounted to 1.3 µM; in test [7], 12.2 µM. The binding result in test [4], in [5] and in test [6] was “binds” each time.

B7: human LATS1 (residues 640-703), NTR (domain or fragment, UniProt O95835 640-703, looked up)
chain: KFFMEQHVENVLKSHQQRLHRKKQLENEMMRVGLSQDAQDQMRKMLCQKESNYIRLKRAKMDKS
notes: human LATS1, residues 640-703 (NTR); also called LATS1 (640-703); LATS1 wild-type; source: E. coli BL21(DE3), purified (Ni-NTA)
Take B7: in [1], the Kd stood at 16.2 µM. Besides, the binding result in test [6] is “binds”.

B8: human NDR1 (residues 24-87), NTR (domain or fragment, UniProt Q15208 24-87, looked up)
chain: KVTLENFYSNLIAQHEEREMRQKKLEKVMEEEGLKDEEKRLRRSAHARKETEFLRLKRTRLGLE
notes: human NDR1, residues 24-87 (NTR); also called NTR of NDR1; source: E. coli BL21(DE3), purified (Ni-NTA)
On to B8, for which the values for the Kd in test [1] and in test [7] were 0.124 µM and 7.94 µM, respectively. Also, the binding result in test [4], in test [5] and in [6] was “binds” throughout.

For the origin of these results see PMC5612953, “Stable MOB1 interaction with Hippo/MST is not essential for development and tissue growth control” (Nature Communications, 2017).
